The values that follow are results of earlier work, collected in patent US20230220007A1, “SETD7 EPIGENETIC MODULATORS” (Biorchestra Co., Ltd., priority 2020, published 2023).

The test system of the data set is histone. The note with it: cited from earlier work; for monomethyl transferase activity: SETD7 substitution mutants; for histone monomethyl transferase activity: mutagenic studies on SETD7.

B1: Y245A: SETD7 substitution mutant at position 245 (protein)
chain: MDSDDEMVEEAVEGHLDDDGLPHGFCTVTYSSTDRFEGNFVHGEKNGRGKFFFFDGSTLEGYYVDDALQGQGVYTYEDGGVLQGTYVDGELNGPAQEYDTDGRLIFKGQYKDNIRHGVCWIYYPDGGSLVGEVNEDGEMTGEKIAYVYPDERTALYGKFIDGEMIEGKLATLMSTEEGRPHFELMPGNSVYHFDKSTSSCISTNALLPDPYESERVYVAESLISSAGEGLFSKVAVGPNTVMSFANGVRITHQEVDSRDWALNGNTLSLDEETVIDVPEPYNHVSKYCASLGHKANHSFTPNCIYDMFVHPRFGPIKCIRTLRAVEADEELTVAYGYDHSPPGKSGPEAPEWYQVELKAFQATQQK
With B1, the monomethyl transferase activity entry is listed as “significantly reduces”, the dimethyltransferase activity result was “increases” and the “histone monomethyl transferase activity” value was “partial or complete loss”.

B2: N296A: SETD7 substitution mutant at position 296 (protein)
chain: MDSDDEMVEEAVEGHLDDDGLPHGFCTVTYSSTDRFEGNFVHGEKNGRGKFFFFDGSTLEGYYVDDALQGQGVYTYEDGGVLQGTYVDGELNGPAQEYDTDGRLIFKGQYKDNIRHGVCWIYYPDGGSLVGEVNEDGEMTGEKIAYVYPDERTALYGKFIDGEMIEGKLATLMSTEEGRPHFELMPGNSVYHFDKSTSSCISTNALLPDPYESERVYVAESLISSAGEGLFSKVAVGPNTVMSFYNGVRITHQEVDSRDWALNGNTLSLDEETVIDVPEPYNHVSKYCASLGHKAAHSFTPNCIYDMFVHPRFGPIKCIRTLRAVEADEELTVAYGYDHSPPGKSGPEAPEWYQVELKAFQATQQK
As to B2, the “histone monomethyl transferase activity” value was “partial or complete loss”.

B3: N302A: SETD7 substitution mutant at position 302 (protein)
chain: MDSDDEMVEEAVEGHLDDDGLPHGFCTVTYSSTDRFEGNFVHGEKNGRGKFFFFDGSTLEGYYVDDALQGQGVYTYEDGGVLQGTYVDGELNGPAQEYDTDGRLIFKGQYKDNIRHGVCWIYYPDGGSLVGEVNEDGEMTGEKIAYVYPDERTALYGKFIDGEMIEGKLATLMSTEEGRPHFELMPGNSVYHFDKSTSSCISTNALLPDPYESERVYVAESLISSAGEGLFSKVAVGPNTVMSFYNGVRITHQEVDSRDWALNGNTLSLDEETVIDVPEPYNHVSKYCASLGHKANHSFTPACIYDMFVHPRFGPIKCIRTLRAVEADEELTVAYGYDHSPPGKSGPEAPEWYQVELKAFQATQQK
Take B3: the “histone monomethyl transferase activity” value is given as “partial or complete loss”.

B4: E330A: SETD7 substitution mutant at position 330 (protein)
chain: MDSDDEMVEEAVEGHLDDDGLPHGFCTVTYSSTDRFEGNFVHGEKNGRGKFFFFDGSTLEGYYVDDALQGQGVYTYEDGGVLQGTYVDGELNGPAQEYDTDGRLIFKGQYKDNIRHGVCWIYYPDGGSLVGEVNEDGEMTGEKIAYVYPDERTALYGKFIDGEMIEGKLATLMSTEEGRPHFELMPGNSVYHFDKSTSSCISTNALLPDPYESERVYVAESLISSAGEGLFSKVAVGPNTVMSFYNGVRITHQEVDSRDWALNGNTLSLDEETVIDVPEPYNHVSKYCASLGHKANHSFTPNCIYDMFVHPRFGPIKCIRTLRAVEADEALTVAYGYDHSPPGKSGPEAPEWYQVELKAFQATQQK
With B4, the “histone monomethyl transferase activity” value is “partial or complete loss”.

B5: W352A: SETD7 substitution mutant at position 352 (protein)
chain: MDSDDEMVEEAVEGHLDDDGLPHGFCTVTYSSTDRFEGNFVHGEKNGRGKFFFFDGSTLEGYYVDDALQGQGVYTYEDGGVLQGTYVDGELNGPAQEYDTDGRLIFKGQYKDNIRHGVCWIYYPDGGSLVGEVNEDGEMTGEKIAYVYPDERTALYGKFIDGEMIEGKLATLMSTEEGRPHFELMPGNSVYHFDKSTSSCISTNALLPDPYESERVYVAESLISSAGEGLFSKVAVGPNTVMSFYNGVRITHQEVDSRDWALNGNTLSLDEETVIDVPEPYNHVSKYCASLGHKANHSFTPNCIYDMFVHPRFGPIKCIRTLRAVEADEELTVAYGYDHSPPGKSGPEAPEAYQVELKAFQATQQK
In the case of B5, the monomethyl transferase activity entry was “complete loss”.

B6: H297A: SETD7 mutant protein with H297A mutation, abolishes methyltransferase activity (protein)
chain: MDSDDEMVEEAVEGHLDDDGLPHGFCTVTYSSTDRFEGNFVHGEKNGRGKFFFFDGSTLEGYYVDDALQGQGVYTYEDGGVLQGTYVDGELNGPAQEYDTDGRLIFKGQYKDNIRHGVCWIYYPDGGSLVGEVNEDGEMTGEKIAYVYPDERTALYGKFIDGEMIEGKLATLMSTEEGRPHFELMPGNSVYHFDKSTSSCISTNALLPDPYESERVYVAESLISSAGEGLFSKVAVGPNTVMSFYNGVRITHQEVDSRDWALNGNTLSLDEETVIDVPEPYNHVSKYCASLGHKANASFTPNCIYDMFVHPRFGPIKCIRTLRAVEADEELTVAYGYDHSPPGKSGPEAPEWYQVELKAFQATQQK
B6: the “histone monomethyl transferase activity” value was “partial or complete loss”. For the same molecule, the “methyltransferase activity (enzymatic activity)” value (His297 mutation) was “abolishes”.

B7: E351A: SETD7 substitution mutant at position 351 (protein)
chain: MDSDDEMVEEAVEGHLDDDGLPHGFCTVTYSSTDRFEGNFVHGEKNGRGKFFFFDGSTLEGYYVDDALQGQGVYTYEDGGVLQGTYVDGELNGPAQEYDTDGRLIFKGQYKDNIRHGVCWIYYPDGGSLVGEVNEDGEMTGEKIAYVYPDERTALYGKFIDGEMIEGKLATLMSTEEGRPHFELMPGNSVYHFDKSTSSCISTNALLPDPYESERVYVAESLISSAGEGLFSKVAVGPNTVMSFYNGVRITHQEVDSRDWALNGNTLSLDEETVIDVPEPYNHVSKYCASLGHKANHSFTPNCIYDMFVHPRFGPIKCIRTLRAVEADEELTVAYGYDHSPPGKSGPEAPAWYQVELKAFQATQQK
Consider B7, for which the monomethyl transferase activity result was “partial loss”.

B8: E254A: SETD7 substitution mutant at position 254 (protein)
chain: MDSDDEMVEEAVEGHLDDDGLPHGFCTVTYSSTDRFEGNFVHGEKNGRGKFFFFDGSTLEGYYVDDALQGQGVYTYEDGGVLQGTYVDGELNGPAQEYDTDGRLIFKGQYKDNIRHGVCWIYYPDGGSLVGEVNEDGEMTGEKIAYVYPDERTALYGKFIDGEMIEGKLATLMSTEEGRPHFELMPGNSVYHFDKSTSSCISTNALLPDPYESERVYVAESLISSAGEGLFSKVAVGPNTVMSFYNGVRITHQAVDSRDWALNGNTLSLDEETVIDVPEPYNHVSKYCASLGHKANHSFTPNCIYDMFVHPRFGPIKCIRTLRAVEADEELTVAYGYDHSPPGKSGPEAPEWYQVELKAFQATQQK
B8: the “histone monomethyl transferase activity” value was “partial or complete loss”.

B9: E329A: SETD7 substitution mutant at position 329 (protein)
chain: MDSDDEMVEEAVEGHLDDDGLPHGFCTVTYSSTDRFEGNFVHGEKNGRGKFFFFDGSTLEGYYVDDALQGQGVYTYEDGGVLQGTYVDGELNGPAQEYDTDGRLIFKGQYKDNIRHGVCWIYYPDGGSLVGEVNEDGEMTGEKIAYVYPDERTALYGKFIDGEMIEGKLATLMSTEEGRPHFELMPGNSVYHFDKSTSSCISTNALLPDPYESERVYVAESLISSAGEGLFSKVAVGPNTVMSFYNGVRITHQEVDSRDWALNGNTLSLDEETVIDVPEPYNHVSKYCASLGHKANHSFTPNCIYDMFVHPRFGPIKCIRTLRAVEADAELTVAYGYDHSPPGKSGPEAPEWYQVELKAFQATQQK
As for B9, the “histone monomethyl transferase activity” value is given as “partial or complete loss”.

B10: Y353A: SETD7 substitution mutant at position 353 (protein)
chain: MDSDDEMVEEAVEGHLDDDGLPHGFCTVTYSSTDRFEGNFVHGEKNGRGKFFFFDGSTLEGYYVDDALQGQGVYTYEDGGVLQGTYVDGELNGPAQEYDTDGRLIFKGQYKDNIRHGVCWIYYPDGGSLVGEVNEDGEMTGEKIAYVYPDERTALYGKFIDGEMIEGKLATLMSTEEGRPHFELMPGNSVYHFDKSTSSCISTNALLPDPYESERVYVAESLISSAGEGLFSKVAVGPNTVMSFYNGVRITHQEVDSRDWALNGNTLSLDEETVIDVPEPYNHVSKYCASLGHKANHSFTPNCIYDMFVHPRFGPIKCIRTLRAVEADEELTVAYGYDHSPPGKSGPEAPEWAQVELKAFQATQQK
With B10, the monomethyl transferase activity entry is “complete loss”.

B11: D270A: SETD7 substitution mutant at position 270 (protein)
chain: MDSDDEMVEEAVEGHLDDDGLPHGFCTVTYSSTDRFEGNFVHGEKNGRGKFFFFDGSTLEGYYVDDALQGQGVYTYEDGGVLQGTYVDGELNGPAQEYDTDGRLIFKGQYKDNIRHGVCWIYYPDGGSLVGEVNEDGEMTGEKIAYVYPDERTALYGKFIDGEMIEGKLATLMSTEEGRPHFELMPGNSVYHFDKSTSSCISTNALLPDPYESERVYVAESLISSAGEGLFSKVAVGPNTVMSFYNGVRITHQEVDSRDWALNGNTLSLAEETVIDVPEPYNHVSKYCASLGHKANHSFTPNCIYDMFVHPRFGPIKCIRTLRAVEADEELTVAYGYDHSPPGKSGPEAPEWYQVELKAFQATQQK
Regarding B11, the “histone monomethyl transferase activity” value is given as “partial or complete loss”.

B12: Y335A: SETD7 substitution mutant at position 335 (protein)
chain: MDSDDEMVEEAVEGHLDDDGLPHGFCTVTYSSTDRFEGNFVHGEKNGRGKFFFFDGSTLEGYYVDDALQGQGVYTYEDGGVLQGTYVDGELNGPAQEYDTDGRLIFKGQYKDNIRHGVCWIYYPDGGSLVGEVNEDGEMTGEKIAYVYPDERTALYGKFIDGEMIEGKLATLMSTEEGRPHFELMPGNSVYHFDKSTSSCISTNALLPDPYESERVYVAESLISSAGEGLFSKVAVGPNTVMSFYNGVRITHQEVDSRDWALNGNTLSLDEETVIDVPEPYNHVSKYCASLGHKANHSFTPNCIYDMFVHPRFGPIKCIRTLRAVEADEELTVAAGYDHSPPGKSGPEAPEWYQVELKAFQATQQK
Turning to B12, the “histone monomethyl transferase activity” value is on record as “partial or complete loss”.
